Data published in patent CN110903391A (DONGDA BIOTECHNOLOGY SUZHOU CO LTD, dated 2020).

What was measured:
[1] = molecular target: T1, PD-L1 on 293T-PD-L1细胞 (human, UniProt Q9NZQ7 19-290); assay: competition FACS on 293T-PD-L1 cells, competitor PD-1-biotin
T1 construct: whole, on cells; Construct not described

[2] = molecular target: T2, PD-L1-ECD-hFc (human, UniProt Q9NZQ7 19-238); assay: ELISA, PD-L1-ECD-hFc coated
T2 construct: extracellular domain; Coated on the ELISA plate; also called PD-L1-hFc; PD-L1-hFc蛋白; not shown: hFc: human Fc

[3] = molecular target: T2, PD-L1-ECD-hFc; assay: competition ELISA, PD-L1-ECD-hFc coated, competitor PD-1-biotin
[4] = molecular target: T1, PD-L1 on 293T-PD-L1细胞; assay: FACS on 293T-PD-L1 cells
[5] = molecular target: 带组氨酸标签的PD-L1抗原 (UniProt Q9NZQ7); assay: Biacore 3000 SPR, antibody captured by anti-human IgG on CM5, PD-L1-His as analyte

T2 sequence (Q9NZQ7 19-238): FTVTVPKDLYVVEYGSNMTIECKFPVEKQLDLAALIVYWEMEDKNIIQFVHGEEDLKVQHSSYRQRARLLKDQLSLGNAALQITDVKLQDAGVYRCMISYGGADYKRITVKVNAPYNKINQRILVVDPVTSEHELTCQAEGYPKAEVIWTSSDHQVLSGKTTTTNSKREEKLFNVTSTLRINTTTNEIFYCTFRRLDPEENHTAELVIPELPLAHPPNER
T1 sequence (Q9NZQ7 19-290): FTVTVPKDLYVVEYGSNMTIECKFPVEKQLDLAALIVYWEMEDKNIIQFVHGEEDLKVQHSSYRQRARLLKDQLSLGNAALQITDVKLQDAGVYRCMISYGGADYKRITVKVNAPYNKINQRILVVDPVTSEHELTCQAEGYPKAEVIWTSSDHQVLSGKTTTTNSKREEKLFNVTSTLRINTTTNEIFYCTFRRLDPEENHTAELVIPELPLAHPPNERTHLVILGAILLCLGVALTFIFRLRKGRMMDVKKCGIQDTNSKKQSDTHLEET

Binder | IC50 [1] [µg/mL] | EC50 [2] [µg/mL] | IC50 [3] [µg/mL] | EC50 [4] [µg/mL] | fold increase of affinity against humanized 10E9C7G2 [5] | fold increase of affinity against humanized 6C8D8 [5]
6F9B1A6人源化完整抗体 (antibody, human IgG1, kappa, V domains shown, Humanized IgG1; expressed in 293 cells; also called hu6F9B1A6; 人源化的6F9B1A6抗体) VH: QVQLVQSGAEVKKPGSSVKVSCKASGYTFIGYTVHWVRQAPGQGLEWIGWFYPGSGSIKYNEKFKDRATLTADKSTSTVYMELSSLRSEDTAVYYCARHGTGKFNYFDVWGQGTTVTVSS VL: DIQLTQSPSFLSASVGDRVTITCRASSTVSYMHWYQQKPGKAPKPWIYATFNLASGVPSRFSGSGSGTEYTLTISSLQPEDFATYYCQPWSSYPLTFGQGTKLEIKR | 0.0365 | 0.00448 | 0.108 | 0.0412 | – | –
亲和力成熟的人源化10E9C7G2抗体(重链Seq ID 49, 轻链Seq ID 50) (antibody, V domains shown) VH: QVQLQQSGPGLVKPSQTLSLTCAISGDSVSSGYWNWIRQSPSRGLEYMGYISYTGSTYYDLSLKSRITINRDTSKNQYSLQLNSVTPEDTAVYYCARGDYGSDWPPWFAYWGQGTTVTVSS VL: DIQMTQSPSSLSASVGDRVTITCSASISISSNSLQWYQQKPGKAPKLLIYRTTNLPSGVPSRFSGSGSGTDYTLTISSLQPEDFATYYCQQSGGLPLTFGQGTKLEIK | – | – | – | – | 4.8 倍 (fold) | –
6C8D8人源化完整抗体 (antibody, human IgG1, kappa, V domains shown, Humanized IgG1; expressed in 293 cells; also called hu6C8D8; 人源化的6C8D8抗体) VH: QITLKESGPTLVKPTQTLTLTCTVSGFSLTSYDISWIRQPPGKALEWLGVIWTGGGTNYNSAFMSRLTITKDNSKNQVVLTMTNMDPVDTATYYCVRGRDWDFDYWGQGTLVTVSS VL: EIVLTQSPDFQSVTPKEKVTITCRASQSIGTSIHWYQQKPDQSPKLLIKYASESISGVPSRFSGSGSGTDFTLTINSLEAEDAATYYCQQSNSWPFTFGQGTKLEIKR | 0.0437 | 0.00224 | 0.139 | 0.0413 | – | –

Continued, values first:

IC50 [1] [µg/mL] | EC50 [2] [µg/mL] | IC50 [3] [µg/mL] | EC50 [4] [µg/mL] | fold increase of affinity against humanized 10E9C7G2 [5] | fold increase of affinity against humanized 6C8D8 [5] | Binder
– | – | – | – | 7.2 倍 (fold) | – | 亲和力成熟的人源化10E9C7G2抗体(重链Seq ID 48, 轻链Seq ID 50) (antibody, V domains shown) VH: QVQLQQSGPGLVKPSQTLSLTCAISGDSVSSGYWNWIRQSPSRGLEYMGYISYTGSTYYSLSLKSRITINRDTSKNQYSLQLNSVTPEDTAVYYCARGDYGSDWPPWFAYWGQGTTVTVSS VL: DIQMTQSPSSLSASVGDRVTITCSASISISSNSLQWYQQKPGKAPKLLIYRTTNLPSGVPSRFSGSGSGTDYTLTISSLQPEDFATYYCQQSGGLPLTFGQGTKLEIK
0.0327 | 0.000684 | 0.147 | 0.0392 | – | – | 10E9C7G2人源化完整抗体 (antibody, human IgG1, kappa, V domains shown, Humanized IgG1; expressed in 293 cells; also called hu10E9C7G2; 人源化的10E9C7G2抗体) VH: QVQLQQSGPGLVKPSQTLSLTCAISGDSITSGYWNWIRQSPSRGLEYMGYISYTGSTYYNLSLKSRITINRDTSKNQYSLQLNSVTPEDTAVYYCARGDYGSDWPPWFAYWGQGTTVTVSS VL: DIQMTQSPSSLSASVGDRVTITCSASSSISSNSLQWYQQKPGKAPKLLIYRTTNLPSGVPSRFSGSGSGTDYTLTISSLQPEDFATYYCQQSSGLPLTFGQGTKLEIKR
– | – | – | – | – | 9.25 倍 (fold) | 亲和力成熟的人源化6C8D8抗体(重链Seq ID 43, 轻链Seq ID 44) (antibody, V domains shown) VH: QITLKESGPTLVKPTQTLTLTCTVSGFSLTSYDISWIRQPPGKALEWLGVIWTGGGTTYNSAFMSRLTITKDNSKNQVVLTMTNMDPVDTATYYCVRGRDWDFDYWGQGTLVTVSS VL: EIVLTQSPDFQSVTPKEKVTITCRASQSIGTSIHWYQQKPDQSPKLLIKYVSESISGVPSRFSGSGSGTDFTLTINSLEAEDAATYYCQQSNSWPFTFGQGTKLEIK
